Measurements from patent publication US20150104459A1.
“And” between values parts separate entries of the source, which are not always exact repeats. Equal entries are not always repeated.

How the values were obtained:
Details in all cases: remark: other sources report otherwise
[1] = target: recombinant homotrimeric HA, A/Wisconsin/67/05 H3N2 (Influenza A virus A/Wisconsin/67/05 (H3N2)); test: trimeric HA microarray; transfection supernatant set 5
[2] = target: recombinant homotrimeric HA, A/Egypt/3300-NAMRU3/08 H5N1 (Influenza A virus A/Egypt/3300-NAMRU3/08 (H5N1)); test: as above
[3] = target: recombinant soluble homotrimeric HA, A/chicken/Vietnam/NCVD-016/08 (H5N1) (influenza A virus A/chicken/Vietnam/NCVD-016/2008 (H5N1)); test: microarray, trimeric HA, transfection supernatant
[4] = target: recombinant soluble homotrimeric HA, A/Hong Kong/156/97 (H5N1) (influenza A virus A/Hong Kong/156/97 (H5N1)); test: microarray, trimeric HA, transfection supernatant
[5] = target: recombinant soluble homotrimeric HA of A/Vietnam/1203/04 (H5N1) (Influenza A virus A/Vietnam/1203/2004 (H5N1)); test: HA microarray, BCC supernatant
[6] = target: recombinant soluble homotrimeric HA of A/Solomon Islands/3/06 (H1N1) (Influenza A virus A/Solomon Islands/3/2006 (H1N1)); test: HA microarray, BCC supernatant
[7] = target: recombinant soluble homotrimeric HA of A/California/4/09 (H1N1) (Influenza A virus A/California/04/2009 (H1N1)); test: HA microarray, BCC supernatant
[8] = target: recombinant soluble homotrimeric HA of A/Wisconsin/67/05 (H3N2) (Influenza A virus A/Wisconsin/67/2005 (H3N2)); test: HA microarray, BCC supernatant
[9] = target: recombinant soluble homotrimeric HA of A/duck/Yangzhou/02/2005 (H8N4) (Influenza A virus A/duck/Yangzhou/02/2005 (H8N4)); test: HA microarray, BCC supernatant
[10] = target: recombinant soluble homotrimeric HA of A/Indonesia/5/05 (H5N1) (Influenza A virus A/Indonesia/5/2005 (H5N1)); test: HA microarray, BCC supernatant
[11] = target: recombinant soluble homotrimeric HA of A/Egypt/3300-NAMRU3/08 (H5N1) (Influenza A virus A/Egypt/3300-NAMRU3/2008 (H5N1)); test: HA microarray, BCC supernatant
[12] = target: recombinant soluble homotrimeric HA of A/Anhui/1/05 (H5N1) (Influenza A virus A/Anhui/1/2005 (H5N1)); test: HA microarray, BCC supernatant
[13] = target: recombinant soluble homotrimeric HA of A/Japan/305/57 (H2N2) (Influenza A virus A/Japan/305/1957 (H2N2)); test: HA microarray, BCC supernatant
[14] = target: recombinant homotrimeric HA, A/swine/Ontario/01911-2/99 H4N6 (Influenza A virus A/swine/Ontario/01911-2/99 (H4N6)); test: trimeric HA microarray; transfection supernatant set 5
[15] = target: recombinant soluble homotrimeric HA, A/northern shoveler/California/HKWF115/2007 (H6N1) (influenza A virus A/northern shoveler/California/HKWF115/2007 (H6N1)); test: microarray, trimeric HA, transfection supernatant
[16] = target: recombinant soluble homotrimeric HA of A/northern shoveler/California/HKWF115/2007 (H6N1) (Influenza A virus A/northern shoveler/California/HKWF115/2007 (H6N1)); test: HA microarray, BCC supernatant
[17] = target: recombinant soluble homotrimeric HA of A/swine/Ontario/01911-2/99 (H4N6) (Influenza A virus A/Swine/Ontario/01911-2/99 (H4N6)); test: HA microarray, BCC supernatant
[18] = target: recombinant soluble homotrimeric HA of A/chicken/Vietnam/NCVD-016/08 (H5N1) (Influenza A virus A/chicken/Vietnam/NCVD-016/2008 (H5N1)); test: HA microarray, BCC supernatant
[19] = target: recombinant soluble homotrimeric HA of A/Netherlands/219/03 (H7N7) (Influenza A virus A/Netherlands/219/03 (H7N7)); test: HA microarray, BCC supernatant
[20] = target: recombinant soluble homotrimeric HA, A/Hong Kong/1073/99 (H9N2) (influenza A virus A/Hong Kong/1073/99 (H9N2)); test: microarray, trimeric HA, transfection supernatant
[21] = target: recombinant homotrimeric HA, A/Solomon Islands/3/06 H1N1 (Influenza A virus A/Solomon Islands/3/06 (H1N1)); test: trimeric HA microarray; transfection supernatant set 3
[22] = target: recombinant homotrimeric HA, A/Japan/305/57 H2N2 (Influenza A virus A/Japan/305/57 (H2N2)); test: as above
[23] = target: recombinant homotrimeric HA, A/Vietnam/1203/04 H5N1 (Influenza A virus A/Vietnam/1203/04 (H5N1)); test: as above
[24] = target: recombinant soluble homotrimeric HA, A/Anhui/1/05 (H5N1) (influenza A virus A/Anhui/1/2005 (H5N1)); test: microarray, trimeric HA, transfection supernatant

B1: TCN-551 (5243_D01) (antibody, V domains shown)
VH: EVQLVQSGSEVKKPGESLKISCKGSGYSFSNYWIGWVRHMPGKGLEWMGIIYPGDSDTRYSPSFQGQVTMSADKSSSTVYLQWSSLKASDTAIYYCARRGGHSFGYGSGGDTHSEFDSWGQGTLVTVSS
VL: QSVLTQSPSVSAAPGQKVTISCSGSDSNIGDYFVCWYQHLPGKPPQLLIYENNKRPSGIPDRFSGSKSGTSATLGITGIQTGDEADYYCATWDGSLSAWVFGGGTKLTVL
Trimeric HA Binding: RLU [1]: 936 RLU
Trimeric HA Binding: RLU [2]: 17400 RLU
Trimeric HA Binding RLU [3]: 792 RLU
Trimeric HA Binding RLU [4]: 792 RLU
Trimeric HA Binding RLU [5]: 4150 RLU
Trimeric HA Binding RLU [6]: 53800 RLU
Trimeric HA Binding RLU [7]: 53400 RLU
Trimeric HA Binding RLU [8]: 6840 RLU
Trimeric HA Binding RLU [9]: 9820 RLU
Trimeric HA Binding RLU [10]: 53500 RLU
Trimeric HA Binding RLU [11]: 47200 RLU
Trimeric HA Binding RLU [12]: 4190 RLU
Trimeric HA Binding RLU [13]: 22600 RLU

B2: TCN-555 (5246_L16) (antibody, V domains shown)
VH: QVQLVQSGAEVKRPGSSVKVSCTASGGIFRKNAISWVRQAPGQGLEWMGGIIAVFNTANYAQKFQNRVKITADESGNTAYMELSSLTSDDTAVYYCASHPKYFYGSGSYPDFWGQGTLVTVSS
VL: QSALTQPRSVSGSPGQSITISCTGGSSDIGASNSVSWYQQHPGKAPKLVIFDVTERPSGVPHRFSGSKSGNTASLTVSGLQPDDEADYFCCAYGGKYLVVFGGGTKVTVL
Trimeric HA Binding: RLU [14]: 4520 RLU
Trimeric HA Binding RLU [3]: 35200 RLU
Trimeric HA Binding RLU [15]: 28700 RLU
Trimeric HA Binding RLU [4]: 36300 RLU
Trimeric HA Binding RLU [16]: 49500 RLU
Trimeric HA Binding RLU [5]: 876 RLU
Trimeric HA Binding RLU [6]: 26400 RLU
Trimeric HA Binding RLU [7]: 44900 RLU
Trimeric HA Binding RLU [8]: 9800 RLU
Trimeric HA Binding RLU [9]: 18400 RLU
Trimeric HA Binding RLU [10]: 34500 RLU
Trimeric HA Binding RLU [11]: 42700 RLU
Trimeric HA Binding RLU [17]: 1950 RLU
Trimeric HA Binding RLU [12]: 1500 RLU
Trimeric HA Binding RLU [13]: 2130 RLU
Trimeric HA Binding RLU [18]: 22300 RLU

B3: TCN-538 (3206_O17) (antibody, V domains shown)
VH: QITLKESGPTLVKPTQTLTLTCVFSGFSLSITGVRVGWIRQPPGKALEWLALISWDDEKHYSPSLQSRLTITKDTSKNQVVLTMTNLDPVDTATYYCARSTDRGHVLRYFGWMLPGDAFDVWGQGTMVTVSS
VL: DIVMTQSPDFLPVSLGERATINCKSSQRVLYSSNNKNYLAWYQLKPGQPPKLIIYWASTRESGVPDRFSGSGSGTEFTLTISSLQAEDVAVYYCQQYYSRPYTFGQGTKLEIK
Trimeric HA Binding: RLU [1]: 2070 RLU
Trimeric HA Binding RLU [3]: 2950 RLU
Trimeric HA Binding RLU [15]: 8900 RLU
Trimeric HA Binding RLU [4]: 5170 RLU
Trimeric HA Binding RLU [16]: 17400 RLU
Trimeric HA Binding RLU [6]: 33200 RLU
Trimeric HA Binding RLU [7]: 13800 RLU
Trimeric HA Binding RLU [19]: 6530 RLU
Trimeric HA Binding RLU [8]: 6900 RLU
Trimeric HA Binding RLU [9]: 6120 RLU
Trimeric HA Binding RLU [10]: 26400 RLU
Trimeric HA Binding RLU [11]: 23600 RLU
Trimeric HA Binding RLU [13]: 43000 RLU
Trimeric HA Binding RLU [18]: 37300 RLU

B4: TCN-523 (5248_A17) (antibody, V domains shown)
VH: QVQLVQSGAEVKKPGSSVKVSCKASGGSFSNYAFSWVRQAPGQGLEWMGGTIPLLGTTNYAQKFQGRVTISADQFTSTAYMELGSLRSEDTAVYYCTRRKMTTAFDSWGQGTLVTVSS
VL: QPVLTQPPSASASLGASVTLTCTLSSAYSNYKVDWYQQRPGKGPRFVMRVGTGGIVGSKGDGIPDRFSVLGSGLNRYLTIKNIQEEDESDYHCGADHGSGSNFVSPYVFGGGTKLTVL
Trimeric HA Binding RLU [3]: 18900 RLU and 24000 RLU and 51300 RLU
Trimeric HA Binding RLU [15]: 29400 RLU and 25100 RLU and 46900 RLU
Trimeric HA Binding RLU [4]: 28400 RLU
Trimeric HA Binding RLU [20]: 24200 RLU and 24600 RLU
Trimeric HA Binding RLU [16]: 46900 RLU
Trimeric HA Binding RLU [5]: 3380 RLU
Trimeric HA Binding RLU [6]: 37900 RLU
Trimeric HA Binding RLU [7]: 34700 RLU
Trimeric HA Binding RLU [10]: 45800 RLU
Trimeric HA Binding RLU [11]: 36500 RLU
Trimeric HA Binding RLU [12]: 5700 RLU
Trimeric HA Binding RLU [13]: 5110 RLU
Trimeric HA Binding RLU [18]: 48900 RLU

B5: TCN-529 (5297_H01) (antibody, V domains shown)
VH: QITLRESGPTLVKPTQTLTLTCTFSGFSLSTNGVNVGWIRQPPGKALEWLALIYWDDDKRYSPSLKRRLTITKDTSKNQVVLTLTNMDPVDTATYYCAHRPDFYGDFEYWGPGTLVTVSS
VL: QSALTQPASVSGSPGQSITISCTGSSSDIGGYNYVSWYQQHPGKAPKLMIYDVNNRPSGVSNRFSGSKSGNTASLTISGLQTDDEADYYCGSYTGSPHYVFGTGTKVTVL
Trimeric HA Binding: RLU [21]: 43 RLU
Trimeric HA Binding RLU [6]: 179 RLU
Trimeric HA Binding RLU [8]: 51600 RLU
Trimeric HA Binding RLU [13]: 435 RLU
Trimeric HA Binding RLU [18]: 410 RLU

B6: TCN-531 (5091_H13) (antibody, V domains shown)
VH: EVQLVESGGDLVQPGRSLKLSCTGSGFTFGDYGVTWVRQAPGKGLEWVGFIRTRPWGGTADTAASVKGRFTISRDDSKSLAYLQMNSLKTEDTAVYYCCRDAPPNVEVASMTNWYFDLWGRGTLVTVSS
VL: DIQLTQSPSSLSASVGDRVTITCRASQGILNCLAWYQQKPGKVPNLLMYAASTLQSGVPSRFSGSGFGTDFTLTISSLQPEDVATYYCQTYGGVSTFGGGTKVEIR
Trimeric HA Binding: RLU [22]: 489 RLU
Trimeric HA Binding: RLU [23]: 2410 RLU
Trimeric HA Binding RLU [8]: 7090 RLU
Trimeric HA Binding RLU [9]: 3120 RLU
Trimeric HA Binding RLU [13]: 410 RLU

B7: TCN-539 (5056_A08) (antibody, V domains shown)
VH: QVQLVESGGGVVQPGRSLRLSCAASEITFITYAMHWVRQAPGKGLEWVALISDDGSNKFYADSVKGRFTISRDNSKNTLYLQMNSLRAEDTAAYYCAREGVYFDSGTYRGYFDYWGQETLVTVSS
VL: EIVLTQSPATLSLSPGERATLSCRASQSVSSYLAWYQQKPGQAPRLLIYDASNRATGIPARFSGSGSGTDFTLTISSLEPEDFAVYYCQQRSHWPPITFGQGTRLEIK
Trimeric HA Binding: RLU [14]: 6510 RLU
Trimeric HA Binding: RLU [2]: 24300 RLU
Trimeric HA Binding RLU [3]: 3500 RLU
Trimeric HA Binding RLU [15]: 2860 RLU
Trimeric HA Binding RLU [4]: 1450 RLU
Trimeric HA Binding RLU [24]: 3240 RLU
Trimeric HA Binding RLU [5]: 545 RLU
Trimeric HA Binding RLU [6]: 239 RLU
Trimeric HA Binding RLU [8]: 715 RLU
Trimeric HA Binding RLU [11]: 11400 RLU
Trimeric HA Binding RLU [13]: 468 RLU
Trimeric HA Binding RLU [18]: 100 RLU

B8: TCN-535 (5246_P19) (antibody, V domains shown)
VH: QVQLVQSGSEVKKPGTSVKVSCTASGSVFTNYGISWVRQAPGQGLEWMGGIIPLFGAAKYAQKFQGRVTITADESTKTVYMELSRLTSKDTAIYFCAKAPRVYEYYFDQWGQGTPVTVSS
VL: EIVLTQSPGTLSLSPGERATLSCRASQSVSSSQLAWYQQKPGQAPRLIIYGASTRATGIPDRFSGSGSGTDFTLTIGRLEPEDFAVFFCQQYSTSPPTFGQGTKVDFK
Trimeric HA Binding RLU [3]: 20900 RLU
Trimeric HA Binding RLU [15]: 18100 RLU
Trimeric HA Binding RLU [20]: 21200 RLU
Trimeric HA Binding RLU [16]: 48200 RLU
Trimeric HA Binding RLU [5]: 4740 RLU
Trimeric HA Binding RLU [6]: 39400 RLU
Trimeric HA Binding RLU [7]: 48600 RLU
Trimeric HA Binding RLU [8]: 34300 RLU
Trimeric HA Binding RLU [9]: 36600 RLU
Trimeric HA Binding RLU [10]: 45600 RLU
Trimeric HA Binding RLU [11]: 39400 RLU
Trimeric HA Binding RLU [17]: 5950 RLU
Trimeric HA Binding RLU [12]: 6880 RLU
Trimeric HA Binding RLU [13]: 26100 RLU
Trimeric HA Binding RLU [18]: 50000 RLU
